{"source": "the nanobody polyreactivity screen of Harvey et al. (2022)", "data": [{"assay": "yeast display, Sf9 membrane polyspecificity reagent, FACS + sequencing; frameworks hold sequencing errors", "how_it_was_run": "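Using colony PCR, genes from sorted yeast display clones were amplified, then sequenced on MiSeq at 2 × 250 and filtered by CDR length. The clones had been stained with 10% biotinylated, detergent-solubilized Sf9 membrane reagent for 1 hour at 4 °C and sorted by FACS into low and high (top ~1%) gates on anti-HA and streptavidin fluorescence. Polyreactivity labels come from the gate of origin.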", "values": [{"sequence": "QVQLVESGGGLVQAGGSLRLSCAASGLTFKSYAMGWYRQAPGKERELVAAISWRGGRTYYADSVKGRFTISRDNAKNTVYLQMNSLKPEDTAVYYCNARSQQWWLSRYNYWGQGTQVTVSS", "polyreactivity (PSR sort gate)": "high polyreactivity"}, {"sequence": "QVQLVESGGGLVQAGGSLRLSCAASGLTFKYYAMGWYRQAPGKERELVAAITYSVGTTYYADSVKGRFTISRDNAKNTVYLQMNSLKPEDTAVYYCAADFAPVGLPSPYAVSEGEDDYWGQGTQVTVSS", "polyreactivity (PSR sort gate)": "low polyreactivity"}, {"sequence": "QVQLVESGGGLVQAGGSLRLSCAASGLTFLFYAMGWYRHATGKERELVASIRWSDGRTYYADSVKGRFTISRDNAKNTVYLQMNSLKPEDTAVYYCAVVPAYVYLNREYYWGQGTQVTVSS", "polyreactivity (PSR sort gate)": "high polyreactivity"}, {"sequence": "QVQLVESGGGLVQAGGSLRLSCAASGLTFLNNAMGWYRQAHGKERELVAAISDGGSTNYADSVKGRFTISRDNAKNTVYLQMNSLKPEDTAVYYCGADYTSASYGSWGQGTQVTVSS", "polyreactivity (PSR sort gate)": "low polyreactivity"}, {"sequence": "QVQLVESGGGLVQAGGSLRLSCAASGLTFLRYAMGWYRQAPGKERELVATISASDGDTYYADSVKGRFTISGDNAKNTVYLQMNSLKPEDTAVYYCAADDIYKYYQYYAFPYYRYDDWGQGTEVTVSS", "polyreactivity (PSR sort gate)": "low polyreactivity"}, {"sequence": "QVQLVESGGGLVQAGGSLRLSCAASGLTFLVNAMGWYRQAPGKEREFVSVITTDGGGTYYADSVKGRFTISRDNAKNTVYLQMNSLKPEDTAVYYCAAESKYRTAATSYRLDYDYWGQGTQVTVSS", "polyreactivity (PSR sort gate)": "low polyreactivity"}, {"sequence": "QVQLVESGGGLVQAGGSLRLSCAASGLTFLVYAMGWYRQAPGKERELVAAITSIGDSTFYADSVKGRFTISRDNAKNTVYLQMNSLKPEDTAVYYCNADGPAGDNKFTLLDYDYWGQGTQVTVSS", "polyreactivity (PSR sort gate)": "low polyreactivity"}, {"sequence": "QVQLVESGGGLVQAGGSLRLSCAASGLTFLWYAMGWYRQAPGKERELVAAITSGGRTKYADSVKGRFTISRDNAKNTVYLQMNSLKPEDTAVYYCAAYTQWWVYDYWGQGTQVTVSS", "polyreactivity (PSR sort gate)": "high polyreactivity"}, {"sequence": "QVQLVESGGGLVQAGGSLRLSCAASGLTFNFNAMGWYRQAPGKERELVAAISYRAGSTYYADSVKGRFTISRDNAKNSVYLQMNSLKPEDTAVYYCAADGYYYLKSGTYVSDYWGQGTQVTVSS", "polyreactivity (PSR sort gate)": "low polyreactivity"}, {"sequence": "QVQLVESGGGLVQAGGSLRLSCAASGLTFNKNAMGWYRQAPGKESEFVAAITRRGGSTYYADSVKGRFTISRDNAKNTVFLQMNSLKPEDTAVYYCAVYPASVNPYHYDYWGQGTQVTVSS", "polyreactivity (PSR sort gate)": "high polyreactivity"}, {"sequence": "QVQLVESGGGLVQAGGSLRLSCAASGLTFNVYAMGWYRPAPGKERELVASITKRGGSTYYADSVKGRFTISRDNAKNTVYLQMNSLKPEDTAVYYCAADGLTGSKYRATGYYWGQGTQVTVSS", "polyreactivity (PSR sort gate)": "high polyreactivity"}, {"sequence": "QVQLVESGGGLVQAGGSLRLSCAASGLTFPFYVMGWYRQAPGKERELVAAISASGASTYYADSVKGRFTISRDNAKNTVYLQMNSLKPEDTAVYYCAALGYGFSYRYDYWGQGTQVTVSS", "polyreactivity (PSR sort gate)": "high polyreactivity"}, {"sequence": "QVQLVESGGGLVQAGGSLRLSCAASGLTFPGYAMGWYRQAPVKERELVAAISYSSGSTYYADSVKGRFTISRDNAKNTVYLQMNILKQEDTEVYYCNRVYRFRGITELDYWGQGTQVTVSS", "polyreactivity (PSR sort gate)": "high polyreactivity"}, {"sequence": "QVQLVESGGGLVQAGGSLRLSCAASGLTFPQYAMGWYIQAPGKERELVAAISKTGGSTYYADSVKGRFTISRDNAKNTVYLLMNSLKPEDTAVYYCAAGSSVTPYRYYYWGQGTQVTVSS", "polyreactivity (PSR sort gate)": "high polyreactivity"}, {"sequence": "QVQLVESGGGLVQAGGSLRLSCAASGLTFPVYAMGWYRQAPGKERELVAAISKSGGNTYYADSVKGRFTISRDNAKNTVYLQMNSLKPEDTAVYYCAAGYLSGNYARYGYWGQGTQVTVSS", "polyreactivity (PSR sort gate)": "high polyreactivity"}, {"sequence": "QVQLVESGGGLVQAGGSLRLSCAASGLTFPYYAMGWYRQAPGKERELVATISWSSISTYYADSVKGRFTISRDNAKNTVYLQMNSLKPEDTAVYYCNARYSLRRGYDYWGQGTQVTVSS", "polyreactivity (PSR sort gate)": "low polyreactivity"}, {"sequence": "QVQLVESGGGLVQAGGSLRLSCAASGLTFPYYAMGWYRQAPGTERELVAVITTSTGTTYYADSVKGRFTMSRDNAKNTVYLQMNSLKPEDTAVYYCATDTGAYWFSLYDYWGQGTQVTVSS", "polyreactivity (PSR sort gate)": "low polyreactivity"}, {"sequence": "QVQLVESGGGLVQAGGSLRLSCAASGLTFQNNAMGRSRQAPGKERELVAVITRIGGSTYYADSVKGRFTISRDNAKNTVYLQLNSLKPEDTAVYYCAVRRRYTPGYDYWGQGTQVTVSS", "polyreactivity (PSR sort gate)": "high polyreactivity"}, {"sequence": "QVQLVESGGGLVQAGGSLRLSCAASGLTFQNNARGWYRQAPGKERELVAAISDGGSTYYADSVKGRFTISRDNAKNTVYLQMNSLKPEDTGVYYCNADYGGWDYLYTSDQDNEYGYWGQGTQVTVSS", "polyreactivity (PSR sort gate)": "low polyreactivity"}, {"sequence": "QVQLVESGGGLVQAGGSLRLSCAASGLTFQSYAMGWYRQAPGKEREFAYYADSVKGRFTMSRDNAKNTVYLQMNSLKPEDTAVYYCNGADDEGDRPITQVGYDYWGQGTQVTVSS", "polyreactivity (PSR sort gate)": "low polyreactivity"}, {"sequence": "QVQLVESGGGLVQAGGSLRLSCAASGLTFQYNAMGWYRQAPGKERELVAAISWSGGSTYYADSVKGRFTISRDNAKNTVYLQMNSLNPEDTAVYYCAAVYLHKSYARRMDYWGQGTQVTVSS", "polyreactivity (PSR sort gate)": "low polyreactivity"}, {"sequence": "QVQLVESGGGLVQAGGSLRLSCAASGLTFRAYVMGWYRQAPGKERELVAAISVSGGSTYYADSVKGRFTISRDNAKNTVYLQMNSLKPEDTAVYYCAAAAKSWLFDYWGQGTQVTVSS", "polyreactivity (PSR sort gate)": "high polyreactivity"}, {"sequence": "QVQLVESGGGLVQAGGSLRLSCAASGLTFRINAMGWYRQAPGKERELVAAITDSGTSTSYADSVKGRFTISRDNAKNTVYLQMKSLKPEDTAVYYCAADVRPGYYLYRSWGAYDYWGQGTQVTVSS", "polyreactivity (PSR sort gate)": "low polyreactivity"}, {"sequence": "QVQLVESGGGLVQAGGSLRLSCAASGLTFRKNAMGWYRQAPGKERELVAAISFSGDRTYYADSVKGRFTISRDNAKNTVYLQMNSLKPEDTAVYYCAARSGVPGLEYDYWGQGTQVTVSS", "polyreactivity (PSR sort gate)": "low polyreactivity"}, {"sequence": "QVQLVESGGGLVQAGGSLRLSCAASGLTFRKNAMGWYRQAPGKERELVAAISTGGRTYYADSVKGRFTISRDNAKNTVYLQMNSLKPEDTAVYYFNSVSVKSGLDYWGQGTQVTVSS", "polyreactivity (PSR sort gate)": "high polyreactivity"}, {"sequence": "QVQLVESGGGLVQAGGSLRLSCAASGLTFRPYTMGWYRQAPGKERELVAAISARGGRTYYADSVKGRFTISRDNAKNTVYLQMNSLKPEDTAVYYCATLETTGVNYWGQGTQVTVSS", "polyreactivity (PSR sort gate)": "high polyreactivity"}, {"sequence": "QVQLVESGGGLVQAGGSLRLSCAASGLTFRRNAMGWYRQAPGKERELVAAITARGTSTYYADSVKGRFSISRDNAKNTVYLQMNSLKPEDTAVYYCNVRWHRTRSEYDYWGQGTQVTVSS", "polyreactivity (PSR sort gate)": "high polyreactivity"}, {"sequence": "QVQLVESGGGLVQAGGSLRLSCAASGLTFRRNAMGWYRQAPGKERELVAVNSRSGGSTYYADSVKGRFTISRDNAKNTVYLQMNCLKPEDTAVYYCNKRTRRTYDYWGQGTQVTVSS", "polyreactivity (PSR sort gate)": "high polyreactivity"}, {"sequence": "QVQLVESGGGLVQAGGSLRLSCAASGLTFRRYDMGWYRQAPGKERELVAAITGGGSTYYADSVKGRFTISRDNAKNTVYLQMNSLKPEDTAVYYCAAGTWYWSYAYDYWGQGTQVTVSS", "polyreactivity (PSR sort gate)": "high polyreactivity"}, {"sequence": "QVQLVESGGGLVQAGGSLRLSCAASGLTFRRYGMGWYRQAPGKERELVASISSRGGNTYYADSVKGRFTISRDNAKNTVYLQMNSLKPEDTAVYYCATGVSTRYEYWGQGTQVTVSS", "polyreactivity (PSR sort gate)": "high polyreactivity"}, {"sequence": "QVQLVESGGGLVQAGGSLRLSCAASGLTFRVYDMGWYRQAPGKERELVAAITGGGRTYYADSVKGRFTISRDNAKNTVYLQMNSLKPEDTAVYYCAARTRVTKREYDYWGQGTQVTVSS", "polyreactivity (PSR sort gate)": "high polyreactivity"}]}]}
